The assay concerns the target VE-cadherin (Human CD-144, cadherin-5) (human) (UniProt P33151). In words: ELISA; 0.01 µM VE-cadherin or control BSA coated on Linbro plate wells in HBSC overnight at 4°C, blocked with 1% BSA in DMEM; MBP fusions added for 1 hr; detected with anti-MBP antibody, OD655; VE-cadherin signal minus BSA and plastic binding. Background: An ELISA detects its analyte on a solid surface through an enzyme-linked reagent.

Kd data for two substances are collected here from article PMC4183468.

UniProt P33151, sequence (P33151 48-599): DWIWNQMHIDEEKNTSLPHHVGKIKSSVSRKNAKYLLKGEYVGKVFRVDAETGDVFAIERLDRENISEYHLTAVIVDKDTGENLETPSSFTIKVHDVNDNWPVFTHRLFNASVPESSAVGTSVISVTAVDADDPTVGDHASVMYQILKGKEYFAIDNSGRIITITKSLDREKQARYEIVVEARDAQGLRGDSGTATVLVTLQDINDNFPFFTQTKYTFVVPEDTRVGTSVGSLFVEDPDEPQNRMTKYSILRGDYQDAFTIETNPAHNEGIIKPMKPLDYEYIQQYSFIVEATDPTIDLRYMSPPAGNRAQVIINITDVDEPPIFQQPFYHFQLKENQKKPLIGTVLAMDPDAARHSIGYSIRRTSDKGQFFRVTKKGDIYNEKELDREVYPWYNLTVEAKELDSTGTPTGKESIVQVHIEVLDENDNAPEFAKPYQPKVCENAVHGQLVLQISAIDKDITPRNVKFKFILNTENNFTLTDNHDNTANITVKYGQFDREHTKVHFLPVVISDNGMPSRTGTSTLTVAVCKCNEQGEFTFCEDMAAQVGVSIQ

As usually defined, the Kd is the constant that tells how readily two partners part at equilibrium. Low readings indicate higher affinity, high ones lower affinity. For the substance “MBP fusion of L. interrogans candidate adhesin LIC11574 (natural protein)”, the Kd turned out to be 7.6 nM. With “MBP fusion of L. interrogans candidate adhesin LIC13411 (natural protein)”, the dissociation constant Kd was 0.4 nM.
